The text below walks through data of patent US20040138118A1.

For this experiment, the target named is myostatin pro peptide (wild type) (human) (UniProt O14793). As to the kind of experiment: cell-based or functional assay.
Sequence of myostatin pro peptide (wild type) (human) (O14793 24-266): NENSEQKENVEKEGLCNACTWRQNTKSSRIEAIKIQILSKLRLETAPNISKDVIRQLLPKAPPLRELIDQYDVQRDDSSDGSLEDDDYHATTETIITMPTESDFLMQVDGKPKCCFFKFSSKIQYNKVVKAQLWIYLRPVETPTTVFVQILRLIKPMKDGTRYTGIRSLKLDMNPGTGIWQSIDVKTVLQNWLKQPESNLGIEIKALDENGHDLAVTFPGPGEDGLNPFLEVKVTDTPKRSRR

For the substance “mammalian Tolloid-like-1 (mTLL-1) (from UniProt O43897 148-1013) (enzyme)”, the fraction of the proteolytically-cleaved myostatin complex active in the reporter assay is more than 50%.
